Each block holds one binder with its values, some of them ahead of it.
Legend:
[1] = molecular target: plasma VWF (normal pooled human plasma) (human, UniProt P04275 764-2813); test: cell-based or functional assay
[2] = molecular target: T1, recombinant AIM-A1 protein (human VWF residues 1238-1493) (human, multiple O-linked sialylated core 1 glycans (produced from transfected HEK293F cells)); test: biolayer interferometry
T1 construct: Any tags are as in that entry; also called glycosylated AIM-A1; human VWF AIM-A1 protein

[3] = molecular target: T1, recombinant AIM-A1 protein (human VWF …); test: method not given; nanobody from E. coli on AIM-A1
[4] = molecular target: T2, Plasma-derived VWF (pdVWF, Alphanate) (human, UniProt P04275 764-2813); test: ELISA, plate coated with 100 nM nanobody, pdVWF titrated; apparent affinity, hyperbolic fit; apparent Kd of direct binding to pdVWF
T2 construct: Commercial multimeric VWF concentrate; also called plasma-purified VWF; full-length VWF

[5] = molecular target: T1, recombinant AIM-A1 protein (human VWF …); test: apparent affinity, method not named; glycosylated AIM-A1 from HEK293F cells; glycosylated AIM-A1 from HEK293F cells; apparent affinity
[6] = molecular target: T2, Plasma-derived VWF (pdVWF, Alphanate); test: ELISA: binding of pdVWF (0.1 µg/ml) to immobilised LBD-WT induced by a titration of the nanobody; EC50 of nanobody-induced binding of pdVWF to immobilized LBD
purified VWF = molecular target: T3, purified VWF (UniProt P04275 764-2813, limits assumed); test: method not stated; monomeric recombinant VHH81; purified VWF
T3 construct: It may be a recombinant fragment

[7] = molecular target: T2, Plasma-derived VWF (pdVWF, Alphanate); test: method not stated; monomeric recombinant VHH81; plasma-derived VWF

EC50 of extent of platelet aggregation as a function of nanobody concentration [1]: ~100 nM | EC50 of platelet aggregation in stirred human platelet rich plasma [1]: ~57 nM | Kd [2]: 76 nM | Kd [3]: 31 nM | Kd [4]: 1.12 nM | Kd [5]: ~10 nM | EC50 [6]: 42 nM
B1: Cd1D12 (VHH)
VHH: QVQLVESGGGLVQPGGSLRLSCAASGFTLDDYAIGWFRQVPGKERTFVGAINWSGTKAYYAGSVKGRSTVRRDNAKNTVYLQMNSLKPEDTAVYYCATHRGLHYGGINYSQKDEYDYWGQGTQVTVSS
notes: Llama nanobody produced in E. coli with a C-terminal His tag; also called 6D12

Kd (purified VWF): ~20 nM | Kd [7]: ~20 nM
B2: VHH81 (VHH)
VHH: EVQLVESGGGLVQPGGSLRLSCAASGRITSYNPMGWFRQAPGKGRELVAAISRTGGSTYYPDSVEGRFTISRDNAKRMVYLQMNSLRAEDTAVYYCAAAGVRAEDGRVRTLPSEYTFWGQGTQVTVSS
notes: Monomeric recombinant VHH81 produced in bacteria; The tags are not included here; also called PMP12A2h1; mono ISVD of caplacizumab

EC50 of platelet aggregation in stirred human platelet rich plasma [1]: ~167 nM | Kd [3]: 120 nM | Kd [4]: 5.4 nM | EC50 [6]: 163 nM
B3: Cd1C4 (VHH)
VHH: QVQLVESGGGLVQTGGSLTLSCAASGRAFSQYSVGWFRQAPGKERTFVAAINWSGTKAYYAGSVKGRSTISRDRAKTTVFLQMNSLKPEDTAVYYCATHRGLYYEGTNYSQKDEYDYWGQGTQVTVSS
notes: Llama nanobody produced in E. coli with a C-terminal His tag; also called 6C4

EC50 of extent of platelet aggregation as a function of nanobody concentration [1]: ~100 nM | EC50 of platelet aggregation in stirred human platelet rich plasma [1]: ~100 nM | Kd [2]: 29 nM | Kd [3]: 13.5 nM | Kd [4]: 3.68 nM | EC50 [6]: 215 nM
B4: Cd1C11 (VHH)
VHH: QVQLVESGGGLVQTGGSLRLSCAASGRTVSHYSVGWFRQAPGKERVFVGAINWSGDKAYYVGSVKGRSTIRRDNAKNTVYLQMNSLKPEDTAVYYCATRRGLYYEGTDYSRKDEYDYWGQGTQVTVSS
notes: Llama nanobody produced in E. coli with a C-terminal His tag; also called 6C11
